Experimental data published in patent US20090280132A1.

Molecular target: Fc receptor (FcR) on antigen presenting cells
Assay: cell-based or functional assay

- inhibition of IL-2 production in Ig-PLP1 mediated activation of 4E3 T cells: 50%
Substance: Ig-W (from UniProt P01867 1-335) (antibody)
